± gives the standard deviation of the averaged measurements.
Assay: total protein half-life in vivo (active degradation + dilution); higher = more stable protein
[1] = E. coli NCM3722 delta-clpP delta-lon delta-hslV, growth: N-lim chemostat, doubling time 6 h
[2] = E. coli NCM3722 delta-clpP, growth: N-lim chemostat, doubling time 6 h
[3] = E. coli NCM3722 delta-hslV, growth: N-lim chemostat, doubling time 6 h
[4] = E. coli NCM3722 delta-lon, growth: N-lim chemostat, doubling time 6 h
[5] = E. coli NCM3722 delta-smpB, growth: N-lim chemostat, doubling time 6 h
[6] = wild type E. coli NCM3722, growth: C-lim chemostat, doubling time 3 h
[7] = wild type E. coli NCM3722, growth: C-lim chemostat, doubling time 12 h
[8] = wild type E. coli NCM3722, growth: N-lim chemostat, doubling time 6 h
[9] = wild type E. coli NCM3722, growth: N-lim chemostat, doubling time 12 h
[10] = wild type E. coli NCM3722, growth: P-lim chemostat, doubling time 6 h
[11] = wild type E. coli NCM3722, growth: P-lim chemostat, doubling time 12 h
[12] = wild type E. coli NCM3722, growth: C-lim chemostat, doubling time 6 h

Row | Sequence | total protein half-life in vivo [1] [h] | total protein half-life in vivo [2] [h] | total protein half-life in vivo [3] [h] | total protein half-life in vivo [4] [h] | total protein half-life in vivo [5] [h] | total protein half-life in vivo [6] [h] | total protein half-life in vivo [7] [h] | total protein half-life in vivo [8] [h] | total protein half-life in vivo [9] [h] | total protein half-life in vivo [10] [h] | total protein half-life in vivo [11] [h] | total protein half-life in vivo [12] [h]
1 | MSQVQSGILPEHCRAAIWIEANVKGEVDALRAASKTFADKLATFEAKFPDAHLGAVVAFGNNTWRALSGGVGAEELKDFPGYGKGLAPTTQFDVLIHILSLRHDVNFSVAQAAMEAFGDCIEVKEEIHGFRWVEERDLSGFVDGTENPAGEETRREVAVIKDGVDAGGSYVFVQRWEHNLKQLNRMSVHDQEMVIGRTKEANEEIDGDERPETSHLTRVDLKEDGKGLKIVRQSLPYGTASGTHGLYFCAYCARLHNIEQQLLSMFGDTDGKRDAMLRFTKPVTGGYYFAPSLDKLMAL | 3.34 ± 0.63 | 3.25 ± 0.84 | 3.36 ± 0.15 | 3.73 ± 0.79 | 3.14 ± 0.27 | 2.96 ± 0.12 | 8.52 ± 2.9 | 3.18 ± 0.17 | 4.17 ± 0.094 | 5.09 ± 0.12 | 9.66 ± 0.84 | 
2 | MSQVSTEFIPTRIAILTVSNRRGEEDDTSGHYLRDSAQEAGHHVVDKAIVKENRYAIRAQVSAWIASDDVQVVLITGGTGLTEGDQAPEALLPLFDREVEGFGEVFRMLSFEEIGTSTLQSRAVAGVANKTLIFAMPGSTKACRTAWENIIAPQLDARTRPCNFHPHLKK [P0AEZ9] | 5.88 ± 0.086 | 5.83 ± 0.34 | 5.23 ± 0.43 | 5.076 ± 0.019 | 4.7 ± 0.21 | 3.17 ± 0.28 | 10.3 ± 1.4 | 4.7 ± 0.53 | 8.21 ± 0.61 | 6.07 ± 0.18 | 13.4 ± 0.48 | 5.99 ± 0.53
3 | MSRFIPIELHHASRLLNHGPTVLITSFDEQSQRRNIMAAAWSMPVEFEPPRVAIVVDKSTWTRELIEHNGKFGIVIPGVAATNWTWAVGSVSGRDEDKFNCYGIPVVRGPVFGLPLVEEKCLAWMECRLLPATSAQEEYDTLFGEVVSAAADARVFVEGRWQFDDDKLNTLHHLGAGTFVTSGKRVTAG | 5.07 ± 0.36 | 4.49 ± 0.06 | 4.12 ± 0.3 | 4.25 ± 0.39 | 4.19 ± 0.066 | 2.96 ± 0.065 | 9.97 ± 0.71 | 4.27 ± 0.46 | 6.92 ± 0.15 | 5.45 ± 0.67 | 10.4 ± 0.57 | 4.15 ± 0.89
4 | MSRINKFVLTVSLLIFIMISAVACGIYTQMVKERVYSLKQSVIDTAFAVANIAEYRRSVAIDLINTLNPTEEQLLVGLRTAYADSVSPSYLYDVGPYLISSDECIQVKEFEKNYCADIMQVVKYRHVKNTGFISFDGKTFVYYLYPVTHNRSLIFLLGLERFSLLSKSLAMDSENLMFSLFKNGKPVTGDEYNAKNAIFTVSEAMEHFAYLPTGLYVFAYKKDVYLRVCTLIIFFAALVAVISGASCLYLVRRVINRGIVEKEAIINNHFERVLDGGLFFSAADVKKLYSMYNSAFLDDLTKAMGRKSFDEDLKALPEKGGYLCLFDVDKFKNINDTFGHLLGDEVLMKVVKILKSQIPVDKGKVYRFGGDEFAVIYTGGTLEELLSILKEIVHFQVGSINLSTSIGVAHSNECPTVERLKMLADERLYKSKKNGRAQISWQ |  |  |  |  | 5.51 ± 1.1 |  |  | 6.47 ± 1.1 |  | 6.08 ± 0.31 | 13.1 ± 1.4 | 5.63 ± 1.6
5 | MSRPTIIINDLDAERIDILLEQPAYAGLPIADALNAELDRAQMCSPEEMPHDVVTMNSRVKFRNLSDGEVRVRTLVYPAKMTDSNTQLSVMAPVGAALLGLRVGDSIHWELPGGVATHLEVLELEYQPEAAGDYLL [P0AFW4] | 4.22 ± 0.14 |  |  | 1.49 |  | 1.02 ± 0.099 | 2.08 ± 0.0038 | 1.43 ± 0.68 |  | 1.36 | 2.53 | 1.55 ± 0.086
6 | MSRRLRRTKIVTTLGPATDRDNNLEKVIAAGANVVRMNFSHGSPEDHKMRADKVREIAAKLGRHVAILGDLQGPKIRVSTFKEGKVFLNIGDKFLLDANLGKGEGDKEKVGIDYKGLPADVVPGDILLLDDGRVQLKVLEVQGMKVFTEVTVGGPLSNNKGINKLGGGLSAEALTEKDKADIKTAALIGVDYLAVSFPRCGEDLNYARRLARDAGCDAKIVAKVERAEAVCSQDAMDDIILASDVVMVARGDLGVEIGDPELVGIQKALIRRARQLNRAVITATQMMESMITNPMPTRAEVMDVANAVLDGTDAVMLSAETAAGQYPSETVAAMARVCLGAEKIPSINVSKHRLDVQFDNVEEAIAMSAMYAANHLKGVTAIITMTESGRTALMTSRISSGLPIFAMSRHERTLNLTALYRGVTPVHFDSANDGVAAASEAVNLLRDKGYLMSGDLVIVTQGDVMSTVGSTNTTRILTVE | 5.558 ± 0.04 | 5.39 ± 0.19 | 5.15 ± 0.41 | 5.61 ± 0.28 | 5.32 ± 0.27 | 3.02 ± 0.11 | 11.4 ± 0.78 | 5.4882 ± 0.00083 | 9.898 ± 0.052 | 5.96 ± 0.26 | 13.1 ± 0.68 | 5.989 ± 0.05

Source: the supplement of paper PMC11246515
